In test [1] the target is T1, CLEVER-1 coated on the ELISA plate (competition ELISA, Examples 5 and 10) (human, UniProt Q9NY15 26-1027, limits assumed).
T1 construct: Coated at 1 ug/ml in PBS; also called human Clever-1
T1 sequence (looked up): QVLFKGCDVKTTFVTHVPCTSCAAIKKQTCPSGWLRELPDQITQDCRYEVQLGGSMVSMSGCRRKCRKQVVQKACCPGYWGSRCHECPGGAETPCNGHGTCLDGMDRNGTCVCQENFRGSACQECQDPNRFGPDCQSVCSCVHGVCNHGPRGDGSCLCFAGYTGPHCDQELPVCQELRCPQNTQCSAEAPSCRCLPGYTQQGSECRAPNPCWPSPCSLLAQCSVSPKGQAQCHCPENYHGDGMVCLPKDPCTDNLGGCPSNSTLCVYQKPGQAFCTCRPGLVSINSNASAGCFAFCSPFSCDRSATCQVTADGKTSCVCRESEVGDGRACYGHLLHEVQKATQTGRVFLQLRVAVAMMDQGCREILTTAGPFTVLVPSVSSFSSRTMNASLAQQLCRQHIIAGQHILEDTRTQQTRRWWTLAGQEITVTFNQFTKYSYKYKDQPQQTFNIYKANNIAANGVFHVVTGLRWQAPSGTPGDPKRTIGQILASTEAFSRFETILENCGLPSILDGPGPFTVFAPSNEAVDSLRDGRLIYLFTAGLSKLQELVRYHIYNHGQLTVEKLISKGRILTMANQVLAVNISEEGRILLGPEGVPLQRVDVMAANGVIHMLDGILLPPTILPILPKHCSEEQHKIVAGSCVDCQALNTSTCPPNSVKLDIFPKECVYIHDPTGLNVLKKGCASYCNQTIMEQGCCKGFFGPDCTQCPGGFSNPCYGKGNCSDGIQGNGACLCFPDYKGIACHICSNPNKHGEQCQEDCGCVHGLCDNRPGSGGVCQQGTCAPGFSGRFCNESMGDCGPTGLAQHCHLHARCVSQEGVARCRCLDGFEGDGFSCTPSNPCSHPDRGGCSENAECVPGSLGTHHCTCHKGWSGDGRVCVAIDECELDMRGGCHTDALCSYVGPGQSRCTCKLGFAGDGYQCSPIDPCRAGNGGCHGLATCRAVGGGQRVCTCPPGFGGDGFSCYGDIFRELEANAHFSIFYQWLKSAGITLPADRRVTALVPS
The test can be described thus: competition ELISA on coated CLEVER-1 against biotinylated mouse 3-372. As for the experimental part:
These were incubated for 1 hour at room temperature on a 96 well Immulon maxisorp plate (Fisher Cat. No. DIS-971-030J) precoated with 1 μg/ml CLEVER-1. […] The reaction was stopped with 3M HCl, absorbance read at 450 nm on a Dynex Technologies MRX TC II plate reader and the binding curves plotted. IC50 values for each antibody were calculated and these were normalized to the IC50 of the chimera which was included on each respective ELISA plate.

Test [2] deals with T1, CLEVER-1 coated on the ELISA plate …. Put plainly: competition ELISA on coated CLEVER-1 against 0.6 µg/ml biotinylated mouse 3-372. The protocol: Briefly, a Nunc Immulon 96 well maxisorp plate (Fisher Cat. No. DIS-971-030J) was coated with CLEVER-1 at 1 μg/ml in PBS (100 μl/well) overnight at 4° C., with an additional 1 hour at 37° C. the following morning. Wells were washed with PBS/0.1% Tween 20 and then blocked for 45 min at room temperature, in 1% Marvel/1% BSA/PBS.
The blocked ELISA plate was washed as before and 100 μl of the premixed antibodies added to each well. The plate was incubated for 1 hour at room temperature.
This confirms that the correct variable region sequences have been identified and expressed in the chimeric antibody.

B1: humanized anti-CLEVER-1 antibody FAR02 VH3/VK5 (antibody, V domains shown)
VH: QVTLKESGPTLVKPTQTLTLTCSFSGFSLSTSGMGIGWIRQPPGKALEWLAHIWWDDDKRYNPALKSRLTISKDTSKNQVVLTMTNMDPVDTATYYCARHYGYDPYYAMDYWGQGTLVTVSS
VL: EIVLTQSPGTLSLSPGERATLSCTASSSVSSSYLHWYQQKPGKAPKLLIYRTSNLASGVPSRFSGSGSGTDYTLTISSLQPEDFATYYCHQYHRSPPTFGQGTKLEIK
notes: Named as a potential lead; also called FAR02 VH3A/K5
Consider B1, for which the “Relative IC50” value in test [1] is 0.42 relative to the chimera on the same plate.

B2: chimeric 3-372 IgG4 (antibody, V domains shown)
VH: QVTLKESGPGILQPSQTLSLTCSFSGFSLNTSGMGIGWIRQPSGKGLEWLAHIWWDDDKRYNPALKSRLTISKDTSSNQVFLKIASVDTADTATYYCARHYGYDPYYAMDYWGQGTSVTVSS
VL: QIVLTQSPAIMSASLGERVTMTCTASSSVSSSYLHWYQQRPGSSPKLCIYRTSNLASGVPPRFSGSGSGTSYSLTISSMEAEDAATYYCHQYHRSPPTFGGGTKLEIN
notes: Expressed in NSO cells; also called CH/CK; chimera
As for B2, the “Relative IC50” value in test [1] was 1 relative to the chimera on the same plate. This molecule also yielded an IC50 in test [2] of 0.89 µg/mL.

B3: mouse monoclonal antibody 3-372 (DSM ACC2520) (antibody, V domains shown)
VH: B2 VH
VL: B2 VL
notes: Mouse hybridoma antibody with kappa light chain
The molecule B3 gave a 50% inhibitory concentration (IC50) in test [2] of 0.77 µg/mL.
